Data taken from article PMC4176348, “Structure analysis of free and bound states of an RNA aptamer against ribosomal protein S8 from Bacillus anthracis”.

Experiments:
[1] = biological target: ribosomal protein S8 (B. anthracis) (Bacillus anthracis, UniProt Q81VR6 1-132); assay: fluorescence anisotropy; 10 mM Mg acetate; conditions: protein: recombinant; tags: N-terminal 6xHis (pET28b NheI-XhoI); label: 5'-fluorescein; hairpin, asymmetric internal loop
[2] = biological target: ribosomal protein S8 (E. coli) (Escherichia coli, UniProt P0A7W7 1-130); assay: fluorescence anisotropy; 10 mM Mg acetate; conditions: protein: recombinant, tags: N-terminal 6xHis (pET28b NheI-XhoI), label: 5'-fluorescein, hairpin
[3] = biological target: T1, ribosomal protein S8 (B. anthracis) (Bacillus anthracis, UniProt Q81VR6 1-132); assay: fluorescence anisotropy; 10 mM Mg acetate; conditions: protein: recombinant; tags: N-terminal 6xHis (pET28b NheI-XhoI); label: 5'-fluorescein
[4] = biological target: T1, ribosomal protein S8 (B. anthracis); assay: 1:1 complex; conditions: protein: recombinant; tags: N-terminal 6xHis (pET28b NheI-XhoI)

B1: helix 21 16S rRNA S8 site, fluorescein hairpin (structured_RNA)
RNA: CGCUGGCGGGAUUAAGUCGACUUCGGUCGAAACUGGUCCCGGCAGCG
Kd [1]: 180 ± 60 nM
Kd ([2]; asymmetric internal loop): 28 ± 7 nM

B2: S8 RNA aptamer, fluorescein hairpin (structured_RNA)
RNA: CGCUGGCGGGUCAGUGAUCACUUCGGUGAUAUCAGACCCGGCAGCG
Kd [3]: 110 ± 30 nM
Kd ([2]; symmetric internal loop): 19 ± 4 nM

B3: RNA-2 aptamer (crystal) (structured_RNA)
RNA: GGGAUGCUCAGUGAUCCUUCGGGAUAUCAGGGCAUCCC
binding result [4]: binds
